Assay results reported in paper PMC11384727.

Biological target: PKM2 (pcDNA3.1(+)-PKM2, transfected) (human) (UniProt P14618)
Experiment: cross-linking

Sequence of PKM2 (pcDNA3.1(+)-PKM2, transfected), P14618 1-531 (enzyme; other documents disagree on this pair) (P14618 whole entry): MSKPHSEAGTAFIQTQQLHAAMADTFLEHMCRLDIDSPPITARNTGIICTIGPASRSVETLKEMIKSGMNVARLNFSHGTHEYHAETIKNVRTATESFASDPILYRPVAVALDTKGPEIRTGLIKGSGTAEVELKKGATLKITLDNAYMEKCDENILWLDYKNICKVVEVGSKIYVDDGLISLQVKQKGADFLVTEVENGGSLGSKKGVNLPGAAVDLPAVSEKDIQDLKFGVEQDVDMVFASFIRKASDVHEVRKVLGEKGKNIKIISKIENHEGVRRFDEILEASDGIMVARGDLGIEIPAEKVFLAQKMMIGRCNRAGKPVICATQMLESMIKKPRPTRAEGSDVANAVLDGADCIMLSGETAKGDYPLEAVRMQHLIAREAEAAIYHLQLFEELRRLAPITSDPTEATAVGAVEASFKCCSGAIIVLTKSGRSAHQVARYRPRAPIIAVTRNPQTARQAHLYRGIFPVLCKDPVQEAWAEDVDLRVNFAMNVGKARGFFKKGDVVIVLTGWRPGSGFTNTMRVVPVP

stoichiometry N: 2
Substance: PKM2 (pcDNA3.1(+)-PKM2, transfected), P14618 1-531 (enzyme; other documents disagree on this pair)
